Here are results for five molecules from patent US20240400690A1 (BIO THERA SOLUTIONS, published 2024).

Assay [1] has as its target T1, VISTA (on VISTA-CHO cells) (UniProt Q9H7M9 33-311, limits assumed).
T1 construct: whole, on cells
T1 sequence (looked up): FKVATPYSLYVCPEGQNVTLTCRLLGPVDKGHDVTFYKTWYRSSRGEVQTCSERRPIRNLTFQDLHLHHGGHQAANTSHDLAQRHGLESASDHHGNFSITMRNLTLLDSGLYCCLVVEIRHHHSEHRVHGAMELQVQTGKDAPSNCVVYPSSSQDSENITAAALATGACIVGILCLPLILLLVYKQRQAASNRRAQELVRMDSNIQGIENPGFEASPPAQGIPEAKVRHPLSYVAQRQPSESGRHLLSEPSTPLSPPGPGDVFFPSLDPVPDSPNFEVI
As to the kind of experiment: flow cytometry on VISTA-CHO cells, PE goat anti-human IgG Fc secondary; blank 0.1% in P3. How it is done:
(§1) Cells (VISTA-CHO cells, Tim3-CHO cells or Lag3-CHO cells) in logarithmic phase were collected and centrifuged at 1500 rpm for 5 min, and the supernatant was removed. The cells were resuspended in 1×PBS and centrifuged at 1500 rpm for 5 min, and the supernatant was removed, and then the procedure was repeated once. […]
(In flow cytometry, cells or beads pass a laser one at a time.)

Assay [2] addresses T2, B7-H3 on tumour cells (MDA-MB-468 cells, N87 cells) (UniProt Q5ZPR3 29-534, limits assumed).
T2 construct: whole, on cells
T2 sequence (looked up): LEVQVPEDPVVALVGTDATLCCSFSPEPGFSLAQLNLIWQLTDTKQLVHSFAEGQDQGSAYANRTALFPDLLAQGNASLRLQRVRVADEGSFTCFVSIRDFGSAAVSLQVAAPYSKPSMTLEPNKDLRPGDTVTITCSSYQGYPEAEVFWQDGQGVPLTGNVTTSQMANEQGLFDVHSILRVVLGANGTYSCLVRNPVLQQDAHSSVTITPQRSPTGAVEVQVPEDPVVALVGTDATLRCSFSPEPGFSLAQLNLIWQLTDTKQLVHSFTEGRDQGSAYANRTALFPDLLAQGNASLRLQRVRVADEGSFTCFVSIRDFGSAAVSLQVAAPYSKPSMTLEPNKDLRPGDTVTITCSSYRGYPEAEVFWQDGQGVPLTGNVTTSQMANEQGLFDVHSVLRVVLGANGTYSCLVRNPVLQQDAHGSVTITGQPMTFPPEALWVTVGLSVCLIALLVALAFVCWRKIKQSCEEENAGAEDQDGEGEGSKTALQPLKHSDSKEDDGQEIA
In words: flow cytometry on MDA-MB-468 cells, PE goat anti-human IgG Fc secondary; blank 0.9% in the positive gate. The procedure: MDA-MB-468 cells in logarithmic phase were collected and centrifuged at 1500 rpm for 5 min, and the supernatant was removed. The cells were resuspended in 1×PBS and centrifuged at 1500 rpm for 5 min, and the supernatant was removed, and then the procedure was repeated once. MDA-MB-468 cells were added to a V-bottom 96-well plate at 50 μL/well (200,000 cells) and centrifuged at 1500 rpm for 5 min, and PBS was discarded; the humanized antibody diluted in gradient (initial concentration of 100 nM, 3-fold gradient dilution, 1×PBS as the vehicle) was added at 100 μL/well; the cells were resuspended, and incubated on ice for 1 h; after the incubation was completed, the cells were centrifuged at 2000 rpm for 5 min, and the supernatant was removed; the cells were resuspended in 1×PBS added at 200 µL/well and centrifuged again and the supernatant was removed, and the procedure was repeated twice; a PE-labeled goat anti-human IgG Fc secondary antibody (Invitrogen, cat #12-4998-82, diluted with 1×PBS at 1:500) was added at 100 μL/well; the cells were resuspended, and incubated for 30 min on ice in the absence of light; after the incubation was completed, the cells were centrifuged at 2000 rpm for 5 min, and the supernatant was removed; the cells were resuspended in 1×PBS added at 200 μL/well and centrifuged again and the supernatant was removed, and the procedure was repeated twice; 1×PBS was then added at 200 μL/well to resuspend the cells; the detection was performed with a cytoflex flow cytometer (Beckman).

The target in assay [3] is T3, Tim3 (on Tim3-CHO cells) (UniProt Q8TDQ0 22-301, limits assumed).
T3 construct: whole, on cells
T3 sequence (looked up): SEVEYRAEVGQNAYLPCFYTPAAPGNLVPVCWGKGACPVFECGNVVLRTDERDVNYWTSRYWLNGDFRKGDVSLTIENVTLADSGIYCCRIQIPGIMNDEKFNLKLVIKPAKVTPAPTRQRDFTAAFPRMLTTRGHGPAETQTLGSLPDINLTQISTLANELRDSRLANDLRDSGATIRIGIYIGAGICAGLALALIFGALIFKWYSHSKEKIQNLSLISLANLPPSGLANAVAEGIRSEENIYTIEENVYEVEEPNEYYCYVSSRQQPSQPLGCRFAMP
As to the kind of experiment: flow cytometry on Tim3-CHO cells, PE goat anti-human IgG Fc secondary; blank 0.2% in P3. How it is done:
as §1

Assay [4] deals with T4, Lag3 (on Lag3-CHO cells) (UniProt P18627 23-525, limits assumed).
T4 construct: whole, on cells
T4 sequence (looked up): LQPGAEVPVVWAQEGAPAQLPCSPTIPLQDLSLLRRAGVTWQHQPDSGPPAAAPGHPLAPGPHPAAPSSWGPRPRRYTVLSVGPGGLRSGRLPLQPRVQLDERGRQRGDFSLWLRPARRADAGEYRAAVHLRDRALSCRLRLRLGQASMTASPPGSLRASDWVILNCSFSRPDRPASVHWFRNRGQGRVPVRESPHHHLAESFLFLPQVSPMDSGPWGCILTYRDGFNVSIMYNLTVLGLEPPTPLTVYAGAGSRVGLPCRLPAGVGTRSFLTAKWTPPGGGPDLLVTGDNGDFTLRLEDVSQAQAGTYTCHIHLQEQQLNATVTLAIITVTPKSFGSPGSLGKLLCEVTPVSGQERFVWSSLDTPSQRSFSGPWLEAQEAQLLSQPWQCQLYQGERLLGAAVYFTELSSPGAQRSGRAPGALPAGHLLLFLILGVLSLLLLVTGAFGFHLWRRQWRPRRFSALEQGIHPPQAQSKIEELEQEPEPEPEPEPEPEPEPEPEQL
In words: flow cytometry on Lag3-CHO cells, PE goat anti-human IgG Fc secondary; blank 0.5% in P3. The procedure: as §1

B1: antibody M1 (antibody, human IgG1, kappa, V domains shown)
VH: QVQLQQSGPELVKPGASVRISCKASGYTFTDYDINWVQQRPGQGLEWIGWIFPGDDTTKYNEKFKGRATLTADKSSNTAYMQLNGLTSENSAVYFCARSPSFDYWGQGTLVTVSS
VL: QIVLTQSPAIMSASPGERVTMTCSASSTIGFMYWYQQKPGTSPKRWIYDTSKLASGVPARFSVSGSGTSYSLTISSMEAEDAATYYCHQRSSYPTFGGGTKLEIKR
notes: Chimeric antibody, murine variable regions on the IgG1 constant region; expressed in HEK293F cells; also called chimeric antibody M1
With B1, in assay [1], the “% of cells in gate P3 at 100 nM” value turned out to be 0.6%. Besides, in assay [2], the “% of cells in positive gate V1-R at 0.411 nM” value (shortened to “% of cells … at 0.411 nM”) amounted to 26.5%, the “% of cells in positive gate V1-R at 1.23 nM” value (“% of cells … at 1.23 nM” below) is 93.1%, the “% of cells in positive gate V1-R at 3.7 nM” value (“% of cells … at 3.7 nM” for short) worked out at 98.7% and the “% of cells in positive gate V1-R at 11.11 nM” value (shortened to “% of cells … at 11.11 nM”) is 99.5%. In assay [2], the “% of cells in positive gate V1-R at 33.33 nM” value (“% of cells … at 33.33 nM” below) was found to be 99.7% and the “% of cells in positive gate V1-R at 100 nM” value is 99.7%. Further, the “% of cells in gate P3 at 100 nM” value in assay [3] stood at 0.8%. Further, the “% of cells in gate P3 at 100 nM” value in assay [4] turned out to be 0.9%.

B2: control antibody M30-H1-L4 (antibody, human IgG1, kappa, V domains shown)
VH: QVQLVQSGAEVKKPGSSVKVSCKASGYTFTNYVMHWVRQAPGQGLEWMGYINPYNDDVKYNEKFKGRVTITADESTSTAYMELSSLRSEDTAVYYCARWGYYGSPLYYFDYWGQGTLVTVSS
VL: EIVLTQSPATLSLSPGERATLSCRASSRLIYMHWYQQKPGQAPRPLIYATSNLASGIPARFSGSGSGTDFTLTISSLEPEDFAVYYCQQWNSNPPTFGQGTKVEIKR
notes: Control anti-B7-H3 antibody; also called HIL4
On to B2, for which, in assay [1], the “% of cells in gate P3 at 100 nM” value turned out to be 0.2%. For the same molecule, in assay [2], the “% of cells … at 0.411 nM” value came out at 1.1%, the “% of cells … at 1.23 nM” value stood at 4%, the “% of cells … at 11.11 nM” value turned out to be 97.2% and the “% of cells … at 33.33 nM” value turned out to be 98.8%. The “% of cells in positive gate V1-R at 100 nM” value in assay [2] was determined as 99.3%. For the same molecule, the “% of cells in gate P3 at 100 nM” value in assay [3] stood at 0.4%. The “% of cells in gate P3 at 100 nM” value in assay [4] came to 0.3%.

B3: antibody V2 (antibody, human IgG1, kappa, V domains shown)
VH: EVQLVQSGAEVKKSGESLKISCKASGYTFTDYDINWVRQMPGKGLEWIGWIFPGDDTTKYNEKFKGQVTLSADKSTNTAYMQWSSLKASDTAMYYCARSPSFDYWGQGTLVTVSS
VL: QIVLTQSPGTLSLSPGERATLSCSASSTIGFMYWYQQKPGQAPRRWIYDTSKLASGVPDRFSVSGSGTDYTLTISRLEPEDFAVYYCHQRSSYPTFGQGTKVEIKR
notes: Humanized from chimeric antibody M1; expressed in HEK293F cells; also called humanized antibody V2
For the molecule B3, in assay [2], the “% of cells … at 0.411 nM” value is 1.2%, the “% of cells … at 1.23 nM” value turned out to be 1.3%, the “% of cells … at 11.11 nM” value came to 97.8% and the “% of cells … at 33.33 nM” value turned out to be 99.7%.

B4: antibody V1 (antibody, human IgG1, kappa, V domains shown)
VH: EVQLVQSGAEVKKSGESLKISCKASGYTFTDYDINWVRQMPGKGLEWMGWIFPGDDTTKYNEKFKGQVTISADKSTNTAYLQWSSLKASDTAMYYCARSPSFDYWGQGTLVTVSS
VL: QIVLTQSPGTLSLSPGERATLSCSASSTIGFMYWYQQKPGQAPRRWIYDTSKLASGVPDRFSVSGSGTDYTLTISRLEPEDFAVYYCHQRSSYPTFGQGTKVEIKR
notes: Humanized from chimeric antibody M1; expressed in HEK293F cells; also called humanized antibody V1
Turning to B4, in assay [2], the “% of cells … at 0.411 nM” value was determined as 1.4%, the “% of cells … at 1.23 nM” value was determined as 8.6%, the “% of cells … at 3.7 nM” value turned out to be 92.7% and the “% of cells … at 11.11 nM” value stood at 99.5%. For the same molecule, in assay [2], the “% of cells … at 33.33 nM” value turned out to be 99.6% and the “% of cells in positive gate V1-R at 100 nM” value amounted to 99.7%.

B5: antibody V5 (antibody, human IgG1, kappa, V domains shown)
VH: QVQLVQSGAEVKKPGASVKVSCKASGYTFTDYDINWVRQAPGQRLEWIGWIFPGDDTTKYNEKFKGRATLTADKSASTAYMELSSLRSEDTAVYYCARSPSFDYWGQGTLVTVSS
VL: QIVLTQSPSSLSASVGDRVTITCSASSTIGFMYWYQQKPGKAPKRWIYDTSKLASGVPSRFSVSGSGTDYTLTISSLQPEDFATYYCHQRSSYPTFGQGTKVEIKR
notes: Humanized from chimeric antibody M1; expressed in HEK293F cells; also called humanized antibody V5
Turning to B5, in assay [2], the “% of cells … at 0.411 nM” value is 31.6%, the “% of cells … at 1.23 nM” value was found to be 73.5%, the “% of cells … at 3.7 nM” value came to 92.6% and the “% of cells … at 11.11 nM” value was 99.3%. Besides, in assay [2], the “% of cells … at 33.33 nM” value was 99.6% and the “% of cells in positive gate V1-R at 100 nM” value was 99.7%.
